Paper PMC5479810

Assays:
[1] = molecular target: Tumor necrosis factor alpha (UniProt P01375)
[2] = molecular target: Tumor necrosis factor alpha (UniProt P01375); remark: listed apart in the source

UniProt P01375, sequence (P01375 whole entry): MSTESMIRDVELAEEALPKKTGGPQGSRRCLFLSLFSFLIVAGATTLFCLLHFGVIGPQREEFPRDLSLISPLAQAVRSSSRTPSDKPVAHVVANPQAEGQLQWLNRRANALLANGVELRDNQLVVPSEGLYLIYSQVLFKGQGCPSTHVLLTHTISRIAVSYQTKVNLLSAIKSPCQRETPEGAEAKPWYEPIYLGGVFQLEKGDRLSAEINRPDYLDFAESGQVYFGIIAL

In the case of “Etanercept biosimilar GP2015 (Erelzi) (Fc fusion)”, the % Potency (redox: after serum-like redox conditions), NFκB-luciferase reporter gene assay; GP2015 DP (30986553), 1.5% C78-C88 [1] is reported as 103%, the % Potency (redox: after serum-like redox conditions), NFκB-luciferase reporter gene assay; GP2015 DP (30986557), 1.3% C78-C88 [1] is reported as 101% and the % Potency (redox: after serum-like redox conditions), NFκB-luciferase reporter gene assay; GP2015 DP (31161503), 1.7% C78-C88 [1] is reported as 98%. For the same substance, the % Potency (redox: after serum-like redox conditions), NFκB-luciferase reporter gene assay; GP2015 DS (B280815), 1.2% C78-C88 [1] was 103%, the % Potency (redox: after serum-like redox conditions), NFκB-luciferase reporter gene assay; GP2015 process intermediate (CAP.E), 1.6% C78-C88 [1] was 98% and the % Potency (untreated), relative to reference standard, NFκB-luciferase reporter gene assay; GP2015 DP (30986553), 1.2% C78-C88 [1] was 98%. For the same substance, the % Potency (untreated), relative to reference standard, NFκB-luciferase reporter gene assay; GP2015 DP (30986557), 1.8% C78-C88 [1] was 97%, the % Potency (untreated), relative to reference standard, NFκB-luciferase reporter gene assay; GP2015 DP (31161503), 1.2% C78-C88 [1] was 100% and the % Potency (untreated), relative to reference standard, NFκB-luciferase reporter gene assay; GP2015 DS (B280815), 1.0% C78-C88 [1] was 99%. The % Potency (untreated), relative to reference standard, NFκB-luciferase reporter gene assay; GP2015 process intermediate (CAP.E), 3.4% C78-C88 [1] was 76% and the potency (TNFα inhibition NFκB-luciferase reporter gene assay in HEK293 cells); main peak of large scale HIC separation of GP2015 [2] was 100%.
In the case of “GP2015 late eluting HIC fraction (etanercept enriched in incorrectly disulfide-bridged variants) (Fc fusion)”, the % Potency (redox: after serum-like redox conditions that reshuffle the incorrect bridges), NFκB-luciferase reporter gene assay; GP2015 late eluting HIC fraction, 2.0% C78-C88 [1] is reported as 93% and the % Potency (untreated), relative to reference standard, NFκB-luciferase reporter gene assay; GP2015 late eluting HIC fraction, 5.5% C78-C88 [1] is reported as 58%.
“Etanercept reference product Enbrel (Fc fusion)” was tested, and the % Potency (redox: after serum-like redox conditions), NFκB-luciferase reporter gene assay; Enbrel (1034018), 1.8% C78-C88 [1] was 96%, the % Potency (redox: after serum-like redox conditions), NFκB-luciferase reporter gene assay; Enbrel (1034842), 1.8% C78-C88 [1] was 95% and the % Potency (redox: after serum-like redox conditions), NFκB-luciferase reporter gene assay; Enbrel (1040542), 1.7% C78-C88 [1] was 107%. For the same substance, the % Potency (redox: after serum-like redox conditions), NFκB-luciferase reporter gene assay; Enbrel (1062728), 1.8% C78-C88 [1] was 98%, the % Potency (redox: after serum-like redox conditions), NFκB-luciferase reporter gene assay; Enbrel (J13793), 1.6% C78-C88 [1] was 100% and the % Potency (untreated), relative to reference standard, NFκB-luciferase reporter gene assay; Enbrel (1034018), 2.8% C78-C88 [1] was 81%. For the same substance, the % Potency (untreated), relative to reference standard, NFκB-luciferase reporter gene assay; Enbrel (1034842), 2.5% C78-C88 [1] was 85%, the % Potency (untreated), relative to reference standard, NFκB-luciferase reporter gene assay; Enbrel (1040542), 2.6% C78-C88 [1] was 89% and the % Potency (untreated), relative to reference standard, NFκB-luciferase reporter gene assay; Enbrel (1062728), 2.5% C78-C88 [1] was 85%. For the same substance, the % Potency (untreated), relative to reference standard, NFκB-luciferase reporter gene assay; Enbrel (J13793), 2.3% C78-C88 [1] was 92%.
